Where a chain is given by its changes, count along the chain named. In names and notes the source's numbering stands. Where no end group is shown, it is not given here.

One assay deals with MLLT3 (Homo sapiens) (UniProt P42568). The note with it: cited from earlier work.
Another assay addresses T1, MBP-AF9 (D544R) (UniProt P42568 1-568, D544R).
T1 sequence (looked up): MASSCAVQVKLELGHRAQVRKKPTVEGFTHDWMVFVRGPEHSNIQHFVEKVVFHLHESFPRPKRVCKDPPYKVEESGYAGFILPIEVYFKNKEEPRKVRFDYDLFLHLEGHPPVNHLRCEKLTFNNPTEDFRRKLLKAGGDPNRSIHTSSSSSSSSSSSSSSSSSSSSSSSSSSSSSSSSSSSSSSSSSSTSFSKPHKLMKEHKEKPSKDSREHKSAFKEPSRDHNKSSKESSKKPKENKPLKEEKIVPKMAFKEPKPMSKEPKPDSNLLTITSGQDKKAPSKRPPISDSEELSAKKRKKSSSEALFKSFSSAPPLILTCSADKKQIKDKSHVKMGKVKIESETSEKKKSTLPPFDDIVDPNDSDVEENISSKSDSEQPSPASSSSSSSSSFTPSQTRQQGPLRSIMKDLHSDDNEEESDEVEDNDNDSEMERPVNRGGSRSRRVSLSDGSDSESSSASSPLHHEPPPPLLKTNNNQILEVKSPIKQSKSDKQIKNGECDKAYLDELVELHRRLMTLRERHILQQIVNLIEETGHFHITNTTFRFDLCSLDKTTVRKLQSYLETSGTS
As to the kind of experiment: other fluorescence titration.

The next assay deals with T2, MBP-AF9 (WT) (UniProt P42568 1-568).
T2 sequence (looked up): T1 sequence (looked up) with R544D
Put plainly: other fluorescence titration.

AFF1, sequence (P51825 whole entry): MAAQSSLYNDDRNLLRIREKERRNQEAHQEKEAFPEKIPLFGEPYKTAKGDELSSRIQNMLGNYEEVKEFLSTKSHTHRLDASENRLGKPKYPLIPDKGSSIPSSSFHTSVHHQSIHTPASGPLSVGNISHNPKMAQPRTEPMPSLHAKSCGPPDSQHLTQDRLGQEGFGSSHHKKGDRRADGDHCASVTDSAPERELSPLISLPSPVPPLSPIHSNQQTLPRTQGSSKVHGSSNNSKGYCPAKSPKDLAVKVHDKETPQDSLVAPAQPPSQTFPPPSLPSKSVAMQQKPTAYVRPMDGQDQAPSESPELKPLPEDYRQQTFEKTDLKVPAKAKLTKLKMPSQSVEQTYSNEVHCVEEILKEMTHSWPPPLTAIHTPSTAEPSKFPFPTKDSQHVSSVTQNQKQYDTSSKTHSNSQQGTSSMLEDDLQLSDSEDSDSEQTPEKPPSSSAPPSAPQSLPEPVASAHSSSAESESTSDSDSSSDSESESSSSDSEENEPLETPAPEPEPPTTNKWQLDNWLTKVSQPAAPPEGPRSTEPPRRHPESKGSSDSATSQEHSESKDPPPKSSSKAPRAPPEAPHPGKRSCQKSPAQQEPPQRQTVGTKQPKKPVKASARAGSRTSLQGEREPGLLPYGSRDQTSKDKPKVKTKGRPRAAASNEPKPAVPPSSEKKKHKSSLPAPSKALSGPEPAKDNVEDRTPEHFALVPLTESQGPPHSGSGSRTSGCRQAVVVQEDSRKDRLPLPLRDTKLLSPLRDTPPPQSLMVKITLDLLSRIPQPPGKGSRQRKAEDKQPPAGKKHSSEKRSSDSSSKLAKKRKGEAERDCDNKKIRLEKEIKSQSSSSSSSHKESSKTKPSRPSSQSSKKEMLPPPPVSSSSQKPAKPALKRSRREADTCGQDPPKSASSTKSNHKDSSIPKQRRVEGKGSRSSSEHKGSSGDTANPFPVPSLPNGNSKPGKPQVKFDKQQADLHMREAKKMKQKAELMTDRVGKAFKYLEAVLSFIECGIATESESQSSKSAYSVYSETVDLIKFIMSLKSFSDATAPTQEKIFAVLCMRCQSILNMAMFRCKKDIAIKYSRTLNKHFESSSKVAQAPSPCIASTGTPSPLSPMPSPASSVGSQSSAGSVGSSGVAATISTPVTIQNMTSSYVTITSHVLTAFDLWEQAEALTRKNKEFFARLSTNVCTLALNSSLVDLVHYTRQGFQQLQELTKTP

One may read the Kd as the concentration at which binding is half-saturated. On to AFF1 (from UniProt P51825), for which the Kd with MLLT3 (Homo sapiens) was 0.17 nM.
Consider LIVDIDLNLLTRIP (also: fluorescein (position not given here)) [Fluorescein AFF4 (K717D) peptide], for which the Kd with MBP-AF9 (D544R) amounted to 0.21 nM; in the assay with MBP-AF9 (WT), 37.4 nM.
On to LIVKIDLNLLTRIP (also: fluorescein (position not given here)) [Fluorescein AFF4 (WT) peptide], for which binding in the assay with MBP-AF9 (WT) was characterised by a dissociation constant (Kd) of 0.2 nM.

The values are drawn from publication PMC4253547 (Leukemia research, 2014).
